Laboratory results reported in patent publication US20190153059A1 (ADEPTHERA, published 2019).
Square brackets hold non-standard residues; d marks the D form. Ends that are not written are not given here. * marks the point of attachment. Palmitoyl = CCCCCCCCCCCCCCCC(=O)*; AEEA = NCCOCCOCC(=O)O

Assays:
CLR/RAMP2 receptor = CLR/RAMP2 receptor (UniProt Q16602 23-461; O60895 43-175, limits assumed); test: cell-based or functional assay
CLR/RAMP1 receptor = CLR/RAMP1 receptor (UniProt Q16602 23-461; O60894 27-148, limits assumed); test: cell-based or functional assay
Sequence of CLR/RAMP1 receptor (Q16602 23-461 limits assumed, chain 1 of 2): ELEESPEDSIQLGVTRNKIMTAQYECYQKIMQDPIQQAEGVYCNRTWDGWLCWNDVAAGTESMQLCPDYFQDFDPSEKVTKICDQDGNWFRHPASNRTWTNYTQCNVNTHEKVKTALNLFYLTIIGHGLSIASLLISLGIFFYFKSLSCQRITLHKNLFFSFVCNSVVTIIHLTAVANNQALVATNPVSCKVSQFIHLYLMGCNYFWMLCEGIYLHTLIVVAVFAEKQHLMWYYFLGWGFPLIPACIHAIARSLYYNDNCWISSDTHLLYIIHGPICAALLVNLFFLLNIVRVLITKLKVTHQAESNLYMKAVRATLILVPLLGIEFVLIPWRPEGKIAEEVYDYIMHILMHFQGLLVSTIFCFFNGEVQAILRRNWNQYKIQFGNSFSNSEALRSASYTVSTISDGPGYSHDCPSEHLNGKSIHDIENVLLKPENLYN
Sequence of CLR/RAMP1 receptor (O60894 27-148 limits assumed, chain 2 of 2): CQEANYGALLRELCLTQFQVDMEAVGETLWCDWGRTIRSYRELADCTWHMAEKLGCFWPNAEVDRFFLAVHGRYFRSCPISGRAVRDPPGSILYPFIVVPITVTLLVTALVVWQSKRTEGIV

Sequence of CLR/RAMP2 receptor (Q16602 23-461 limits assumed, chain 1 of 2): as the sequence (Q16602 23-461 limits assumed, chain 1 of 2) above
Sequence of CLR/RAMP2 receptor (O60895 43-175 limits assumed, chain 2 of 2): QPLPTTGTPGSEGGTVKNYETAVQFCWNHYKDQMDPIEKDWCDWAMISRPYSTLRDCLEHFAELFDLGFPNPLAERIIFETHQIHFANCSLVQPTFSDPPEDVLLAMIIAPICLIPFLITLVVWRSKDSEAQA

CLR/RAMP2 EC50 (CLR/RAMP2 receptor) [nM] | CLR/RAMP1 EC50 (CLR/RAMP1 receptor) [nM] | CLR/RAMP2 Max Activity (CLR/RAMP2 receptor) | CLR/RAMP1 Max Activity (CLR/RAMP1 receptor) | Binder
0.6 | 0.4 |  |  | Palmitoyl-KGCRFGTCTVQKLAHQIYQFTDKDKDNSAPVDPSSPHSY-NH2 (cysteine pairing not given here) [SEQ ID NO: 30]
 |  | 102 % of positive control | 69 % of positive control | Ac-FGCRFGTCTVQKLAHQIYQFTDKDKDNVAPRSKISPQGY-NH2 (ends and bridges not checked) [SEQ ID NO: 53 (human ADM)]
19 | 234 |  |  | Ac-K(Palmitoyl)GCRFGTCTVQKLAHQIYQFTDKDKDNVAPRSKSSPHSY-NH2 (ends and bridges not checked) [SEQ ID NO: 65]
7 | 180 |  |  | Palmitoyl-KGCRFGTCTVQKLAHQIYQFTDKDKDNVAPRSKSSPHSY-NH2 (ends and bridges not checked) [SEQ ID NO: 63]
1 | 0.8 |  |  | Palmitoyl-KGCRFGTCTVQKLAHQIYQFTDKDKQDSAPVDPSSPHSY-NH2 (ends and bridges not checked) [SEQ ID NO: 35]
17 | 224 |  |  | Ac-VGCRFGTCTVQKLAHQIYQFTDKDKDNSAPVDPSSPHSY-NH2 (ends and bridges not checked) [SEQ ID NO: 56]
0.5 |  | 104 % of positive control |  | [AEEA]K(Palmitoyl)GCRFGTCTVQKLAHQIYQFTDKDKDSAPVDPSSPHSY-NH2 (ends and bridges not checked) [SEQ ID NO: 46]
0.7 | 0.5 |  |  | Palmitoyl-KTKKTLRTGCRFGTCTVQKLAHQIYQFTDKDKDNSAPVDPSSPHSY-NH2 (ends and bridges not checked) [SEQ ID NO: 38]
 | 0.5 |  |  | KGCRFGTCTVQKLAHQIYQFTDKDKDNVAPRSKISPQGY (Ace-PEG3- at N-terminus; K(Hexadecanoyl-isoGlu); -NH2) [SEQ ID NO: 151]
49 | 34 |  |  | KGCRFGTCTVQKLAHQIYQFTDKDKDNVAPRSKISPQGY (Pal- at N-terminus; K(Pal); -NH2) [SEQ ID NO: 73]
 | 0.8 |  | 88 % of positive control | KGCRFGTCTVQKLAHQIYQFTDKDKDNVAPRSKISPQGY (Ace-PEG3- at N-terminus; K([19-carboxy-nonadecanoyl]-PEG3-isoGlu); -NH2) [SEQ ID NO: 156]
 | 0.6 |  |  | KGCRFGTCTVQKLAHQIYQFTDKDKDNVAPRSKISPQGY (Ace-PEG3- at N-terminus; K([19-carboxy-nonadecanoyl]-isoGlu); -NH2) [SEQ ID NO: 155]
3 | 16 |  |  | Ac-KGCRFGTCTVQKLAHQIYQFTDKDKDNVAPVDPSSPHSY-NH2 (ends and bridges not checked) [SEQ ID NO: 60]
 |  |  | 2 % of positive control | [AEEA]K(Palmitoyl)GCRFGTCTVQKLAHLWQLMGPAGRQDSAPVDPSSPHSY-NH2 (not fully specified; ends and bridges not checked) [SEQ ID NO: 62]
0.4 |  | 64 % of positive control |  | KGCRFGTCTVQKLAHQIYQFTDKDKSAPVDPSSPHSY (miniPEG- at N-terminus; K(PAL); -NH2) [SEQ ID NO: 47]
0.5 | 0.2 |  |  | Ac-TK(Palmitoyl)KTLRTGCRFGTCTVQKLAHQIYQFTDKDKDNSAPVDPSSPHSY-NH2 (ends and bridges not checked) [SEQ ID NO: 39]
0.9 | 0.8 |  |  | Palmitoyl-KGCRFGTCTVQKLAHQIYQFTPAGRQDSAPVDPSSPHSY-NH2 (cysteine pairing not given here) [SEQ ID NO: 31]
0.2 |  |  |  | TKKTLRTGCRFGTCTVQKLAHQIYQFTDKDKDNVAPVDPSSPHSY (miniPEG- at N-terminus; K(Pal) at position 2 (miniPEG-TK(Pal)K...); -NH2) [SEQ ID NO: 42]
0.9 | 0.6 |  |  | Palmitoyl-KGCRFGTCTVQKLAHQIYQFTDKGRQDSAPVDPSSPHSY-NH2 (ends and bridges not checked) [SEQ ID NO: 36]
17 | 771 |  |  | Ac-KGCRFGTCTVQKLAHQIYQFTDKDSAPVDPSSPHSY-NH2 (cysteine pairing not given here) [SEQ ID NO: 93]
0.4 | 0.3 |  |  | Ac-K(Palmitoyl)GCRFGTCTVQKLAHQIYQFTPAGRQDSAPVDPSSPHSY-NH2 (cysteine pairing not given here) [SEQ ID NO: 33]
0.7 | 0.2 |  |  | Palmitoyl-KGCRFGTCTVQKLAHQIYQFTDKDKDNVAPVDPSSPHSY-NH2 (ends and bridges not checked) [SEQ ID NO: 34]
0.7 |  | 107 % of positive control |  | KGCRFGTCTVQKLAHQIYQFTDKDVAPRSKISPQGY (miniPEG- at N-terminus; K(PAL); (D-Ser) in ...VAPR(D-Ser)KISPQGY; -NH2) [SEQ ID NO: 213]
0.4 |  | 99 % of positive control |  | KGCRFGTCTVQKLAHQIYQFTDKDVAPRSKISPQGY (miniPEG- at N-terminus; K(PAL); (D-Gln) in ...KISP(D-Gln)GY; -NH2) [SEQ ID NO: 214]
0.9 | 8 | 22 % of positive control |  | KGCRFGTCTVQKLAHQIYQFTDKDVAPRSKISPQGY (miniPEG- at N-terminus; K(PAL); (D-Val) in ...GTCT(D-Val)QKL...; -NH2) [SEQ ID NO: 211]
6.4 | 43 |  |  | Palmitoyl-KGCRFGTCTVQKLAHQIYQFTDKDAPVDPSSPHSY-NH2 (ends and bridges not checked) [SEQ ID NO: 110]
149 | 909 |  |  | Ac-VGCRFGTCTVQKLAHQIYQFTPAGRQDSAPVDPSSPHSY-NH2 (ends and bridges not checked) [SEQ ID NO: 57]
18 | 31 |  |  | Ac-KGCRFGTCTVQKLAHQIYQFTDKDKDNSAPVDPSSPHSY-NH2 (ends and bridges not checked) [SEQ ID NO: 59]
0.3 | 0.2 |  | 65 % of positive control | [AEEA]K(Palmitoyl)GCRFGTCTVQKLAHQIYQFTDKDKQDSAPVDPSSPHSY-NH2 (ends and bridges not checked) [SEQ ID NO: 51]
